Results on one molecule are retold here after US20100279318A1 (OMEROS, published 2010).

In this test the target is T1, dopamine D5 receptor-GFP (D5-GFP) (Aequoria victoria, UniProt P21918 1-477; P42212 1-238 = GFP).
T1 construct: also called D5 dopamine receptor; not shown: vector-encoded residues between the KpnI site and the start codon of GFP
As to the kind of experiment: NLS co-trafficking assay, co-transfected HEK cells, 48 h, confocal microscopy.

B1: Dopamine D1 receptor containing a NLS (D1-NLS) (receptor)
chain: MRTLNTSAMDGTGLVVERDFSVRILTACFLSLLILSTLLGNTLVCAAVIRFRHLRSKVTNFFVISLAVSDLLVAVLVMPWKAVAEIAGFWPFGSFCNIWVAFDIMCSTASILNLCVISVDRYWAISSPFRYERKMTPKAAFILISVAWTLSVLISFIPVQLSWHKAKPTSPSDGNATSLAETIDNCDSSLSRTYAISSSVISFYIPVAIMIVTYTRIYRIAQKQIRRIAALERAAVHAKNCQTTTGNGKPVECSQPESSFKMSFKRETKVLKTLSVIMGVFVCCWLPFFILNCILPFCGSGETQPFCIDSNTFDVFVWFGWANSSLNPIIYAFNAKKFKRFSTLLGCYRLCPATNNAIETVSINNNGAAMFSSHHEPRGSISKECNLVYLIPHAVGSSEDLKKEEAAGIARPLEKLSPALSVILDYDTDVSLEKIQPITQNGQHPT
notes: No fluorescent tag; whether that entry is the full-length receptor cannot be seen from the text; The vector of the untagged D1-NLS is not described; also called D1 receptor with the NLS
As to B1, the binding result is “no binding”.
